Measurements: US20050019808A1 (WISCONSIN ALUMNI RESEARCH FOUNDATION, published 2005)

Key:
[1] = molecular target: the molecule itself; test: SDS-PAGE and Western, self-association (dimer)
[2] = molecular target: T1, B23 (nucleophosmin) (UniProt P06748 1-294); test: mobility shift, 4% native PAGE, Western with Ab-B23; not sensitive to RNaseA
T1 construct: Endogenous protein of HeLa cells; also called protein B23; ribosomal chaperone protein B23

[3] = molecular target: the molecule itself; test: SDS-PAGE and Western, self-association (results not shown)

T1 sequence (P06748 whole entry): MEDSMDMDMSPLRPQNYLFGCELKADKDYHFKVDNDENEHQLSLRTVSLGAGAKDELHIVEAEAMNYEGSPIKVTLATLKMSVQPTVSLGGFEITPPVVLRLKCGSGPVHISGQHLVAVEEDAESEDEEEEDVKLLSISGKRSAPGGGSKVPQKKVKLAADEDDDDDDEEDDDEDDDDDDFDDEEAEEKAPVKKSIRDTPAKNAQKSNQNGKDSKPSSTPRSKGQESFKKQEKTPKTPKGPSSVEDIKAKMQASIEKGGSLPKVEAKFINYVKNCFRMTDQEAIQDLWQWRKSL

B1: recombinant Mengo 2A protein (other)
chain: SPNPLDVSKTYPTLHILLQFNHRGLEARIFRHGQLWAETHAEVVLRSKTKQISFLSNGSYPSMDATTPLNPWKSTYQAVLRAEPHRVTMDVYHKRIRPFRLPLVQKEWRTCEENVFGLYHVFETHYAGYFSDLLIHDVETNPG
notes: domain: 2A; also called r2A; recombinant 2A
B1: binds [1]; binds [2].

B2: recombinant Mengo 2B protein (other)
chain: PFTFKPRQRPVFQTQGAAVSSMAQTLLPNDLASKAMGSAFTALLDANEDAQKAMKIIKTLSSLSDAWENVKGTLNNPEFWKQLLSRCVQLIAGMTIAVMHPDPLTLLCLGVLTAAEITSQTSLCEEIAAKFKTIFTTPPPRFPVISLFQQQ
notes: domain: 2B; also called recombinant 2B protein
B2: binds [3].
